Drawing on patent US20100216659A1, this text covers Kd for one substance.

The target of experiment [1] is monomeric gp120 (HIV-1) (HIV-1). The experiment is described as follows: yeast display flow cytometry, gp120 titrated in the absence of sCD4, MFI of antigen binding.
For experiment [2], the target named is gp120 pre-complexed with sCD4 (HIV-1). The experiment is described as follows: yeast display flow cytometry, gp120 titrated in the presence of sCD4, MFI of antigen binding.

With “scFv X5 displayed on yeast (X5-pPNLS in EBY100)”, the dissociation constant (Kd) in experiment [1] came out at 14.5 nM; in experiment [2], 1.1 nM.
